US20200115443A1 (TRICAN BIOTECHNOLOGY, published 2020)

Assays:
complement C5 [1] = target: T1, complement C5 (UniProt P01031 19-1676, limits assumed); assay: cell-based or functional assay
VEGF-A [2] = target: T2, VEGF-A (human, UniProt P15692-4 27-191, limits assumed); assay: cell-based or functional assay
complement C5 [3] = target: T1, complement C5; assay: direct ELISA, C5 coated 100 ng/well, HRP anti-human Fc detection
VEGF-A [4] = target: T2, VEGF-A; assay: direct ELISA, VEGF-A coated 100 ng/well, HRP anti-human Fc detection

T2 sequence (P15692 other isoform, or with tags, fused parts or gaps limits assumed): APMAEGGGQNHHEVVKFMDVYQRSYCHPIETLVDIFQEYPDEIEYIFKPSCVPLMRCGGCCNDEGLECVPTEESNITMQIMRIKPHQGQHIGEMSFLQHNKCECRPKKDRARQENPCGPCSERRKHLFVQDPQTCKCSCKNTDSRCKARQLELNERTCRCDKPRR

IC50, inhibition of VEGF-dependent HUVEC proliferation (MTS) (VEGF-A [2]): 0.195 nM | EC50 (complement C5 [3]): 3.57 nM | EC50 (VEGF-A [4]): 0.288 nM
B1: bi-functional fusion protein C5V (other)
chain 1: QVQLVQSGAEVKKPGASVKVSCKASGYIFSNYWIQWVRQAPGQGLEWMGEILPGSGSTEYTENFKDRVTMTRDTSTSTVYMELSSLRSEDTAVYYCARYFFGSSPNWYFDVWGQGTLVTVSSASTKGPSVFPLAPCSRSTSESTAALGCLVKDYFPEPVTVSWNSGALTSGVHTFPAVLQSSGLYSLSSVVTVPSSNFGTQTYTCNVDHKPSNTKVDKTVERKCCVECPPCPAPPVAGPSVFLFPPKPKDTLMISRTPEVTCVVVDVSQEDPEVQFNWYVDGVEVHNAKTKPREEQFNSTYRVVSVLTVLHQDWLNGKEYKCKVSNKGLPSSIEKTISKAKGQPREPQVYTLPPSQEEMTKNQVSLTCLVKGFYPSDIAVEWESNGQPENNYKTTPPVLDSDGSFFLYSRLTVDKSRWQEGNVFSCSVMHEALHNHYTQKSLSLSLGGGGSGGGGSGGGGSSDTGRPFVEMYSEIPEIIHMTEGRELVIPCRVTSPNITVTLKKFPLDTLIPDGKRIIWDSRKGFIISNATYKEIGLLTCEATVNGHLYKTNYLTHRQTNTIIDVVLSPSHGIELSVGEKLVLNCTARTELNVGIDFNWEYPSSKHQHKKLVNRDLKTQSGSEMKKFLSTLTIDGVTRSDQGLYTCAASSGLMTKKNSTFVRVHEK
chain 2: DIQMTQSPSSLSASVGDRVTITCGASENIYGALNWYQQKPGKAPKLLIYGATNLADGVPSRFSGSGSGTDFTLTISSLQPEDFATYYCQNVLNTPLTFGQGTKVEIKRTVAAPSVFIFPPSDEQLKSGTASVVCLLNNFYPREAKVQWKVDNALQSGNSQESVTEQDSKDSTYSLSSTLTLSKADYEKHKVYACEVTHQGLSSPVTKSFNRGEC
IC50, inhibition of the alternative complement pathway (hemolysis of rabbit erythrocytes by normal human serum) (complement C5 [1]): 25.3 nM
